Reference: article PMC10786891, “Massively parallel profiling of RNA-targeting CRISPR-Cas13d”

T1: EsCas13d, nuclease-dead (Eubacterium siraeum, UniProt B0MS50, R295A;H300A;R849A;H854A)
T1 sequence: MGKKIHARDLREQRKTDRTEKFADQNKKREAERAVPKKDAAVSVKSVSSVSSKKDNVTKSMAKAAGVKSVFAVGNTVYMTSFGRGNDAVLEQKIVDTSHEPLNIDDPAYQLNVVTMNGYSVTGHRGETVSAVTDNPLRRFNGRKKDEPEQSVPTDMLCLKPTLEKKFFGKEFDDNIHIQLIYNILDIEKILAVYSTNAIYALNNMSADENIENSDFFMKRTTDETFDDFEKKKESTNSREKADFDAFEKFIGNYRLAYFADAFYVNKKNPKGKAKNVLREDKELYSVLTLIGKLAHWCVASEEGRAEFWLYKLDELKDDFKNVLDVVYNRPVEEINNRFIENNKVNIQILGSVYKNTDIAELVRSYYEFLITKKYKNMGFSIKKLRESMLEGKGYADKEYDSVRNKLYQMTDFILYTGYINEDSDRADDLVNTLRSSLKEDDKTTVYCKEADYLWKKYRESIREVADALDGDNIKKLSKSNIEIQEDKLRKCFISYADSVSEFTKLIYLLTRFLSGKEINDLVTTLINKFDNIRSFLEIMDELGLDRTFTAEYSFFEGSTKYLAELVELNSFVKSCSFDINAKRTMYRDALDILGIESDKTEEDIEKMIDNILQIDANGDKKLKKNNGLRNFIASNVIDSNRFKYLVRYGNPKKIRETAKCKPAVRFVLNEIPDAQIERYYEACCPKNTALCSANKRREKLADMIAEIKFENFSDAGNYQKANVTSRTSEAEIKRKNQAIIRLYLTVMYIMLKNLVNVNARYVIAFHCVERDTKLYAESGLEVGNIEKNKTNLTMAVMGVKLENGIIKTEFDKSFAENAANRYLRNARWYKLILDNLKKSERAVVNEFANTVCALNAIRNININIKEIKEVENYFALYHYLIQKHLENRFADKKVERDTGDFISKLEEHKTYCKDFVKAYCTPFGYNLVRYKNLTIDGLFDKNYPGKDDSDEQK


target: T1, EsCas13d, nuclease-dead; experiment: crRNA (strand 1, pre-loaded); Mg2+; 40 mM Tris-HCl pH 7.5, 150 mM NaCl, 6 mM MgCl2, 1 mM DTT, 0.1% Tween-20, 0.2 mg/ml BSA; 25 C; 10 min per concentration, then washed; conditions: tags: His6-TwinStrep-SUMO cleaved; N-terminal SNAP kept (SNAP-Surface 488); label: 3' end held by stalled T7 RNA polymerase

Binder | Kd [nM]
target 1 MT 5'PFS GGG 3'PFS UAG (mixed) RNA 1: CACCCGUGCAAAAAUGCAGGGGUCUAAAACUGAGCGGAUAACCUCUCUAUGG RNA 2: GGGAAUGGAUCCACAUCUACGAAUUCGGGCCAUAGAGAGGUUAUCCGCUCAUAGAGAUCGGAAGAGCACACGU | 16.1 ± 2.1
target 1 insU 3' of 14,insA 3' of 8 (mixed) RNA 1: CACCCGUGCAAAAAUGCAGGGGUCUAAAACUGAGCGGAUAACCUCUCUAUGG RNA 2: GGGAAUGGAUCCACAUCUACGAAUUCGUACCAUAGAGAUGGUUAUACCGCUCACCGAGAUCGGAAGAGCACACGU | 38.6 ± 3.2
target 1 MT 5'PFS UUC 3'PFS CCU (mixed) RNA 1: CACCCGUGCAAAAAUGCAGGGGUCUAAAACUGAGCGGAUAACCUCUCUAUGG RNA 2: GGGAAUGGAUCCACAUCUACGAAUUCUUCCCAUAGAGAGGUUAUCCGCUCACCUAGAUCGGAAGAGCACACGU | 66 ± 27
target 1 MT 5'PFS GCC 3'PFS UUA (mixed) RNA 1: CACCCGUGCAAAAAUGCAGGGGUCUAAAACUGAGCGGAUAACCUCUCUAUGG RNA 2: GGGAAUGGAUCCACAUCUACGAAUUCGCCCCAUAGAGAGGUUAUCCGCUCAUUAAGAUCGGAAGAGCACACGU | 12.5 ± 3.7
target 1 C2G,U10G (mixed) RNA 1: CACCCGUGCAAAAAUGCAGGGGUCUAAAACUGAGCGGAUAACCUCUCUAUGG RNA 2: GGGAAUGGAUCCACAUCUACGAAUUCGUACCAUAGAGAGGUGAUCCGCUGACCGAGAUCGGAAGAGCACACGU | 42 ± 7
target 1 MT 5'PFS GGC 3'PFS CAU (mixed) RNA 1: CACCCGUGCAAAAAUGCAGGGGUCUAAAACUGAGCGGAUAACCUCUCUAUGG RNA 2: GGGAAUGGAUCCACAUCUACGAAUUCGGCCCAUAGAGAGGUUAUCCGCUCACAUAGAUCGGAAGAGCACACGU | 15.7 ± 5.5
target 1 MT 5'PFS GCU 3'PFS AUA (mixed) RNA 1: CACCCGUGCAAAAAUGCAGGGGUCUAAAACUGAGCGGAUAACCUCUCUAUGG RNA 2: GGGAAUGGAUCCACAUCUACGAAUUCGCUCCAUAGAGAGGUUAUCCGCUCAAUAAGAUCGGAAGAGCACACGU | 57 ± 16
target 1 MT 5'PFS UCA 3'PFS CGU (mixed) RNA 1: CACCCGUGCAAAAAUGCAGGGGUCUAAAACUGAGCGGAUAACCUCUCUAUGG RNA 2: GGGAAUGGAUCCACAUCUACGAAUUCUCACCAUAGAGAGGUUAUCCGCUCACGUAGAUCGGAAGAGCACACGU | 18.5 ± 6.5
target 1 MT 5'PFS GCC 3'PFS UUC (mixed) RNA 1: CACCCGUGCAAAAAUGCAGGGGUCUAAAACUGAGCGGAUAACCUCUCUAUGG RNA 2: GGGAAUGGAUCCACAUCUACGAAUUCGCCCCAUAGAGAGGUUAUCCGCUCAUUCAGAUCGGAAGAGCACACGU | 17 ± 5.5
target 1 MT 5'PFS AGU 3'PFS ACU (mixed) RNA 1: CACCCGUGCAAAAAUGCAGGGGUCUAAAACUGAGCGGAUAACCUCUCUAUGG RNA 2: GGGAAUGGAUCCACAUCUACGAAUUCAGUCCAUAGAGAGGUUAUCCGCUCAACUAGAUCGGAAGAGCACACGU | 38 ± 11
target 1 MT 5'PFS GCC 3'PFS UUU (mixed) RNA 1: CACCCGUGCAAAAAUGCAGGGGUCUAAAACUGAGCGGAUAACCUCUCUAUGG RNA 2: GGGAAUGGAUCCACAUCUACGAAUUCGCCCCAUAGAGAGGUUAUCCGCUCAUUUAGAUCGGAAGAGCACACGU | 9.4 ± 2
target 1 MT 5'PFS GGG 3'PFS UAC (mixed) RNA 1: CACCCGUGCAAAAAUGCAGGGGUCUAAAACUGAGCGGAUAACCUCUCUAUGG RNA 2: GGGAAUGGAUCCACAUCUACGAAUUCGGGCCAUAGAGAGGUUAUCCGCUCAUACAGAUCGGAAGAGCACACGU | 16.8 ± 2.75
target 1 MT 5'PFS UCA 3'PFS ACU (mixed) RNA 1: CACCCGUGCAAAAAUGCAGGGGUCUAAAACUGAGCGGAUAACCUCUCUAUGG RNA 2: GGGAAUGGAUCCACAUCUACGAAUUCUCACCAUAGAGAGGUUAUCCGCUCAACUAGAUCGGAAGAGCACACGU | 14 ± 4.5
target 1 MT 5'PFS GCC 3'PFS UUG (mixed) RNA 1: CACCCGUGCAAAAAUGCAGGGGUCUAAAACUGAGCGGAUAACCUCUCUAUGG RNA 2: GGGAAUGGAUCCACAUCUACGAAUUCGCCCCAUAGAGAGGUUAUCCGCUCAUUGAGAUCGGAAGAGCACACGU | 8.2 ± 1.1
target 1 MT 5'PFS GGG 3'PFS UAA (mixed) RNA 1: CACCCGUGCAAAAAUGCAGGGGUCUAAAACUGAGCGGAUAACCUCUCUAUGG RNA 2: GGGAAUGGAUCCACAUCUACGAAUUCGGGCCAUAGAGAGGUUAUCCGCUCAUAAAGAUCGGAAGAGCACACGU | 17.4 ± 2.8
target 1 MT 5'PFS GUU 3'PFS AUU (mixed) RNA 1: CACCCGUGCAAAAAUGCAGGGGUCUAAAACUGAGCGGAUAACCUCUCUAUGG RNA 2: GGGAAUGGAUCCACAUCUACGAAUUCGUUCCAUAGAGAGGUUAUCCGCUCAAUUAGAUCGGAAGAGCACACGU | 13.9 ± 2.3
target 1 MT 5'PFS UAA 3'PFS AUC (mixed) RNA 1: CACCCGUGCAAAAAUGCAGGGGUCUAAAACUGAGCGGAUAACCUCUCUAUGG RNA 2: GGGAAUGGAUCCACAUCUACGAAUUCUAACCAUAGAGAGGUUAUCCGCUCAAUCAGAUCGGAAGAGCACACGU | 33 ± 10
target 1 MT 5'PFS UCA 3'PFS ACA (mixed) RNA 1: CACCCGUGCAAAAAUGCAGGGGUCUAAAACUGAGCGGAUAACCUCUCUAUGG RNA 2: GGGAAUGGAUCCACAUCUACGAAUUCUCACCAUAGAGAGGUUAUCCGCUCAACAAGAUCGGAAGAGCACACGU | 13.2 ± 3.35
target 1 MT 5'PFS UAA 3'PFS AUG (mixed) RNA 1: CACCCGUGCAAAAAUGCAGGGGUCUAAAACUGAGCGGAUAACCUCUCUAUGG RNA 2: GGGAAUGGAUCCACAUCUACGAAUUCUAACCAUAGAGAGGUUAUCCGCUCAAUGAGAUCGGAAGAGCACACGU | 57.5 ± 16
target 1 insG 3' of 22,insG 3' of 6 (mixed) RNA 1: CACCCGUGCAAAAAUGCAGGGGUCUAAAACUGAGCGGAUAACCUCUCUAUGG RNA 2: GGGAAUGGAUCCACAUCUACGAAUUCGUACGCAUAGAGAGGUUAUCCGGCUCACCGAGAUCGGAAGAGCACACGU | 51 ± 10
target 1 MT 5'PFS GCU 3'PFS AUU (mixed) RNA 1: CACCCGUGCAAAAAUGCAGGGGUCUAAAACUGAGCGGAUAACCUCUCUAUGG RNA 2: GGGAAUGGAUCCACAUCUACGAAUUCGCUCCAUAGAGAGGUUAUCCGCUCAAUUAGAUCGGAAGAGCACACGU | 76 ± 31
target 1 MT 5'PFS GCC 3'PFS CAG (mixed) RNA 1: CACCCGUGCAAAAAUGCAGGGGUCUAAAACUGAGCGGAUAACCUCUCUAUGG RNA 2: GGGAAUGGAUCCACAUCUACGAAUUCGCCCCAUAGAGAGGUUAUCCGCUCACAGAGAUCGGAAGAGCACACGU | 44 ± 21
target 1 MT 5'PFS UCA 3'PFS ACG (mixed) RNA 1: CACCCGUGCAAAAAUGCAGGGGUCUAAAACUGAGCGGAUAACCUCUCUAUGG RNA 2: GGGAAUGGAUCCACAUCUACGAAUUCUCACCAUAGAGAGGUUAUCCGCUCAACGAGAUCGGAAGAGCACACGU | ~65
target 1 MT 5'PFS GGC 3'PFS CAA (mixed) RNA 1: CACCCGUGCAAAAAUGCAGGGGUCUAAAACUGAGCGGAUAACCUCUCUAUGG RNA 2: GGGAAUGGAUCCACAUCUACGAAUUCGGCCCAUAGAGAGGUUAUCCGCUCACAAAGAUCGGAAGAGCACACGU | ~34
target 1 MT 5'PFS UAG 3'PFS AGG (mixed) RNA 1: CACCCGUGCAAAAAUGCAGGGGUCUAAAACUGAGCGGAUAACCUCUCUAUGG RNA 2: GGGAAUGGAUCCACAUCUACGAAUUCUAGCCAUAGAGAGGUUAUCCGCUCAAGGAGAUCGGAAGAGCACACGU | 65.5 ± 15
target 1 MT 5'PFS GGA 3'PFS CUU (mixed) RNA 1: CACCCGUGCAAAAAUGCAGGGGUCUAAAACUGAGCGGAUAACCUCUCUAUGG RNA 2: GGGAAUGGAUCCACAUCUACGAAUUCGGACCAUAGAGAGGUUAUCCGCUCACUUAGAUCGGAAGAGCACACGU | 13 ± 4.5
target 1 MT 5'PFS UAA 3'PFS AUA (mixed) RNA 1: CACCCGUGCAAAAAUGCAGGGGUCUAAAACUGAGCGGAUAACCUCUCUAUGG RNA 2: GGGAAUGGAUCCACAUCUACGAAUUCUAACCAUAGAGAGGUUAUCCGCUCAAUAAGAUCGGAAGAGCACACGU | 47 ± 13.5
target 1 MT 5'PFS GUU 3'PFS UUU (mixed) RNA 1: CACCCGUGCAAAAAUGCAGGGGUCUAAAACUGAGCGGAUAACCUCUCUAUGG RNA 2: GGGAAUGGAUCCACAUCUACGAAUUCGUUCCAUAGAGAGGUUAUCCGCUCAUUUAGAUCGGAAGAGCACACGU | 8.95 ± 0.95
